Reference: patent US20220204609A1 (SHANDONG BOAN BIOTECHNOLOGY, published 2022)
Changes are numbered by the printed parent chain. Like-named read-outs stand apart in the source and are kept apart here. One block for each binder: values may come before it.

Columns and labels:
[1] = target: T1, Claudin18.2 on cells (human, UniProt P56856-2 1-261); test: cell-based or functional assay
[2] = target: T1, Claudin18.2 on cells; test: flow cytometry on NUGC4 cells, antibody at 1.5 µg/mL
[3] = target: T1, Claudin18.2 on cells; test: flow cytometry on NUGC4 cells, antibody at 3 µg/mL
[4] = target: T1, Claudin18.2 on cells; test: flow cytometry on 293T-Claudin18.2 cells, antibody at 3 µg/mL
[5] = target: T1, Claudin18.2 on cells; test: flow cytometry on NUGC4 cells, antibody at 0.75 µg/mL
[6] = target: T1, Claudin18.2 on cells; test: flow cytometry on 293T-Claudin18.2 cells, antibody at 1.5 µg/mL
[7] = target: T1, Claudin18.2 on cells; test: flow cytometry on 293T-Claudin18.2 cells, antibody at 0.75 µg/mL
[8] = target: T1, Claudin18.2 on cells; test: flow cytometry on 293T-Claudin18.2 cells, antibody at 0.375 µg/mL
[9] = target: T1, Claudin18.2 on cells; test: flow cytometry on 293T-Claudin18.2 cells, antibody at 1.5 µg/mL; remark: listed apart in the source
[10] = target: T1, Claudin18.2 on cells; test: flow cytometry on NUGC4 cells, antibody at 1.5 µg/mL; remark: listed apart in the source
[11] = target: T1, Claudin18.2 on cells; test: flow cytometry on 293T-Claudin18.2 cells, antibody at 0.75 µg/mL; remark: listed apart in the source
[12] = target: T1, Claudin18.2 on cells; test: flow cytometry on NUGC4 cells, antibody at 0.75 µg/mL; remark: listed apart in the source
[13] = target: T1, Claudin18.2 on cells; test: flow cytometry on NUGC4 cells, antibody at 3 µg/mL; remark: listed apart in the source
[14] = target: T1, Claudin18.2 on cells; test: flow cytometry on 293T-Claudin18.2 cells, antibody at 3 µg/mL; remark: listed apart in the source
[15] = target: T1, Claudin18.2 on cells; test: flow cytometry on 293T-Claudin18.2 cells, antibody at 0.375 µg/mL; remark: listed apart in the source
[16] = target: T1, Claudin18.2 on cells; test: cell-based or functional assay; remark: listed apart in the source
[17] = target: T1, Claudin18.2 on cells; test: cell-based or functional assay; remark: listed apart in the source
[18] = target: T1, Claudin18.2 on cells; test: cell-based or functional assay; remark: listed apart in the source
[19] = target: T2, Human CD16a(F) (Sino Biological, 10389-H27H-B) (human, UniProt P08637 17-208); test: BLI; KD of CLDQMIX-CA808.1-IgG1 against KD of CLDQMIX-CA808.1-IgG1 VLPLL
T2 construct: Loaded on streptavidin biosensors
T2 sequence (P08637 17-208 limits assumed): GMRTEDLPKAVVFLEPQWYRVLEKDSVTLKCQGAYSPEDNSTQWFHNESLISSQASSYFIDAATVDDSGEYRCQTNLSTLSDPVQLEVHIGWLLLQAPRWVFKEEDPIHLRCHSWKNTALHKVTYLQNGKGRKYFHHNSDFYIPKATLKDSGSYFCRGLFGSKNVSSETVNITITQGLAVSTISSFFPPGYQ

[20] = target: T3, Human CD32a(H) (Sino Biological, 10374-H27H1-B) (human, UniProt P12318 34-218); test: as above
T3 construct: Loaded on streptavidin biosensors
T3 sequence (looked up): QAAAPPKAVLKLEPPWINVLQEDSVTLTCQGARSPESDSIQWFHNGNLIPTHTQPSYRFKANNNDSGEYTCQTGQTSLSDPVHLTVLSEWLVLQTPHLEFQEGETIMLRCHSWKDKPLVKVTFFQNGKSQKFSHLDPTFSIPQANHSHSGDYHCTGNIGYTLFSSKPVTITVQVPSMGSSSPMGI

[21] = target: T4, Human CD16a(V) (Sino Biological, 10389-H27H1-B) (human, UniProt P08637 17-208); test: as above
T4 construct: Loaded on streptavidin biosensors
T4 sequence (P08637 17-208 F176V limits assumed): as the sequence (P08637 17-208 limits assumed) above, with F160V counted along it

[22] = target: T5, Human FcRn (ACROBiosystems, FCM-H82W4) (human, UniProt P55899 24-297; P61769 21-119); test: as above
T5 construct: Loaded on streptavidin biosensors

[23] = target: T2, Human CD16a(F) (Sino Biological, …); test: BLI (Octet RED 96), Human CD16a(F) on streptavidin biosensor, 1:1 fit
[24] = target: T4, Human CD16a(V) (Sino Biological, …); test: BLI (Octet RED 96), Human CD16a(V) on streptavidin biosensor, 1:1 fit
[25] = target: T5, Human FcRn (ACROBiosystems, FCM-H82W4); test: BLI (Octet RED 96), Human FcRn on streptavidin biosensor, steady state analysis
[26] = target: T6, Human CD32b (human, UniProt P31994 43-217, limits assumed); test: BLI (Octet RED 96), Human CD32b on streptavidin biosensor, steady state analysis
T6 sequence (looked up): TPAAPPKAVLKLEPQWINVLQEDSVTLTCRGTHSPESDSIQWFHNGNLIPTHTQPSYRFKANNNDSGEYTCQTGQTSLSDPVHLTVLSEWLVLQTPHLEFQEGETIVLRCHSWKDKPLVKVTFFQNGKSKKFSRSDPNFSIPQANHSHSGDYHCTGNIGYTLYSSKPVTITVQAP

[27] = target: T3, Human CD32a(H) (Sino Biological, …); test: BLI (Octet RED 96), Human CD32a(H) on streptavidin biosensor, steady state analysis
[28] = target: T7, Claudin18.1 on cells (human, UniProt P56856 1-261); test: flow cytometry on 293T-Claudin18.1 cells, antibody at 1.5 µg/mL
T7 construct: whole, on cells

[29] = target: T7, Claudin18.1 on cells; test: flow cytometry on 293T-Claudin18.1 cells, antibody at 3 µg/mL
[30] = target: T7, Claudin18.1 on cells; test: flow cytometry on 293T-Claudin18.1 cells, antibody at 0.75 µg/mL
[31] = target: T7, Claudin18.1 on cells; test: flow cytometry on 293T-Claudin18.1 cells, antibody at 0.375 µg/mL

- ADCC inhibition rate, %, antibody 0.5 µg/mL, 293T-Claudin18.2 target cells, PBMC effectors, LDH [1]: 15%
- ADCC inhibition rate, %, antibody 5 µg/mL, 293T-Claudin18.2 target cells, PBMC effectors, LDH [1]: 47%
- ADCC inhibition rate, %, antibody 50 µg/mL, 293T-Claudin18.2 target cells, PBMC effectors, LDH [1]: 48%
- mean fluorescence intensity [2]: 5640
- mean fluorescence intensity [3]: 6140
- mean fluorescence intensity [4]: 1.37e+06
- mean fluorescence intensity [5]: 5210
- mean fluorescence intensity [6]: 1.03e+06
- mean fluorescence intensity [7]: 787000
- mean fluorescence intensity [8]: 308000
B2: CLD393-C1024-IgG1 (antibody, V domains shown)
VH: EVQLVQSGGGVVQPGRSLRLSCAASGFTFSSYDMHWVRQAPGKGLEWVADISDDGSNKNYADSVKGRFTISRDNSKNTLYLQMNSLRAEDAAVYYCAREGLRWFGEFYYSYGMDVWGQGTTVTVSS
VL: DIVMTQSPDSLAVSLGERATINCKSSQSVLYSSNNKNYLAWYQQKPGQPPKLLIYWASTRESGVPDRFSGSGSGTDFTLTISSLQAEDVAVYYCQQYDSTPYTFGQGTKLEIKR
notes: Complete IgG1 made in HEK293 cells; also called CLD383-C1024-IgG1

- mean fluorescence intensity [9]: 849000
- ADCC inhibition rate, %, antibody 0.5 µg/mL, 293T-Claudin18.2 target cells, PBMC effectors, LDH [1]: 18%
- ADCC inhibition rate, %, antibody 5 µg/mL, 293T-Claudin18.2 target cells, PBMC effectors, LDH [1]: 45%
- ADCC inhibition rate, %, antibody 50 µg/mL, 293T-Claudin18.2 target cells, PBMC effectors, LDH [1]: 49%
- mean fluorescence intensity [2]: 93500
- mean fluorescence intensity [10]: 97100
- mean fluorescence intensity [3]: 117000
- mean fluorescence intensity [11]: 689000
- mean fluorescence intensity [12]: 69600
- mean fluorescence intensity [13]: 131000
- mean fluorescence intensity [5]: 55400
- mean fluorescence intensity [6]: 878000
- mean fluorescence intensity [14]: 902000
- mean fluorescence intensity [15]: 498000
- mean fluorescence intensity [7]: 650000
- ADCC inhibition rate, %, antibody 0.1 µg/mL, 293T-Claudin18.2 target cells, PBMC effectors, LDH [16]: 20.8%
- ADCC inhibition rate, %, antibody 1 µg/mL, 293T-Claudin18.2 target cells, PBMC effectors, LDH [16]: 41.4%
- ADCC inhibition rate, %, antibody 10 µg/mL, 293T-Claudin18.2 target cells, PBMC effectors, LDH [16]: 60.6%
- mean fluorescence intensity [8]: 407000
- ADCC EC50 (µg/mL), NUGC4 target cells, Jurkat reporter effector cells, Bio-Glo [17]: 2.56 µg/mL
- ADCC EC50 (µg/mL), NUGC4 target cells, Jurkat reporter effector cells, Bio-Glo [18]: 2.15 µg/mL
B3: IMAB362 (antibody, human IgG1, kappa, V domains shown)
VH: QVQLQQPGAELVRPGASVKLSCKASGYTFTSYWINWVKQRPGQGLEWIGNIYPSDSYTNYNQKFKDKATLTVDKSSSTAYMQLSSPTSEDSAVYYCTRSWRGNSFDYWGQGTTLTVSS
VL: DIVMTQSPSSLTVTAGEKVTMSCKSSQSLLNSGNQKNYLTWYQQKPGQPPKLLIYWASTRESGVPDRFTGSGSGTDFTLTISSVQAEDLAVYYCQNDYSYPFTFGSGTKLEIKR

- mean fluorescence intensity [28]: 28900
- mean fluorescence intensity [9]: 1.2e+06
- mean fluorescence intensity [2]: 138000
- mean fluorescence intensity [29]: 47500
- Kd [23]: 566 nM
- Kd [24]: 107 nM
- Kd [25]: 6.93 nM
- mean fluorescence intensity [3]: 185000
- mean fluorescence intensity [11]: 753000
- mean fluorescence intensity [30]: 29400
- mean fluorescence intensity [5]: 75600
- Kd [26]: 3200 nM
- mean fluorescence intensity [14]: 1.38e+06
- mean fluorescence intensity [15]: 535000
- mean fluorescence intensity [31]: 26000
- ADCC inhibition rate, %, antibody 0.1 µg/mL, 293T-Claudin18.2 target cells, PBMC effectors, LDH [16]: 39.4%
- ADCC inhibition rate, %, antibody 1 µg/mL, 293T-Claudin18.2 target cells, PBMC effectors, LDH [16]: 63.6%
- ADCC inhibition rate, %, antibody 10 µg/mL, 293T-Claudin18.2 target cells, PBMC effectors, LDH [16]: 57.4%
- Kd [27]: 410 nM
- ADCC EC50 (µg/mL), NUGC4 target cells, Jurkat reporter effector cells, Bio-Glo [18]: 1.26 µg/mL
B5: CLDQMIX-CA808.1-IgG1 (antibody)
heavy: not shown
light: DIVMTQSPSSLSASVGDRVTITCRASQGIRNDLGWYQQKPGKAPKLLIYAASSLQSGVPSRFSGSGSGTDFTLTISSLQPEDFATYYCLQDYNYPRTFGQGTKVEIKRTVAAPSVFIFPPSDEQLKSGTASVVCLLNNFYPREAKVQWKVDNALQSGNSQESVTEQDSKDSTYSLSSTLTLSKADYEKHKVYACEVTHQGLSSPVTKSFNRGEC
notes: Complete IgG1 made in HEK293 cells from the scFv clone; also called CLDMIX-CA808.1-IgG1

More lines, now with the values behind:

B1: CLD393-C1002-IgG1 (antibody, V domains shown)
VH: B2 VH with E1Q, Q6E, Y32H
VL: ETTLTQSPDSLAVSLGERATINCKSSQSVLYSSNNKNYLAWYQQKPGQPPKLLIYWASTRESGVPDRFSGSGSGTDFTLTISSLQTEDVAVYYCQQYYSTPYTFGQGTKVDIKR
notes: Complete IgG1 made in HEK293 cells; also called CLD387-C1002-IgG1
- ADCC inhibition rate, %, antibody 0.5 µg/mL, 293T-Claudin18.2 target cells, PBMC effectors, LDH [1]: 22%
- ADCC inhibition rate, %, antibody 5 µg/mL, 293T-Claudin18.2 target cells, PBMC effectors, LDH [1]: 49%
- ADCC inhibition rate, %, antibody 50 µg/mL, 293T-Claudin18.2 target cells, PBMC effectors, LDH [1]: 64%
- mean fluorescence intensity [2]: 4890
- mean fluorescence intensity [3]: 5170
- mean fluorescence intensity [4]: 1.33e+06
- mean fluorescence intensity [5]: 4950
- mean fluorescence intensity [6]: 1.16e+06
- mean fluorescence intensity [7]: 852000
- mean fluorescence intensity [8]: 406000

B4: CLDQMix-CA808.1-IgG1-VLPLL (antibody)
heavy: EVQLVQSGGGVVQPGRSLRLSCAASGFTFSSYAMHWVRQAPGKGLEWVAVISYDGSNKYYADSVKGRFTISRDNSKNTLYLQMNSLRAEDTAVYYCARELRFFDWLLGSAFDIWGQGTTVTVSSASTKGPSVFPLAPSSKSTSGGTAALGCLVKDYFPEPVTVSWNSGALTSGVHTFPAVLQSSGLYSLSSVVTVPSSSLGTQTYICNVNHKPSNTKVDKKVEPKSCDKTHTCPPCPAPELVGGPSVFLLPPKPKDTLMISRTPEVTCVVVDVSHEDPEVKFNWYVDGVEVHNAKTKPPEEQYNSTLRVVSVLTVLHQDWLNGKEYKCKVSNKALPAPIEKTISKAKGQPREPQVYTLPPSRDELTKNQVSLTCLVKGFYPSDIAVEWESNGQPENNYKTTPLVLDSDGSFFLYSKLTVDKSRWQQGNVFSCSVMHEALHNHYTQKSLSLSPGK
light: B5 light
- Ratio of KD [19]: 4.75
- Ratio of KD [20]: 1.37
- Ratio of KD [21]: 1.98
- Ratio of KD [22]: 1.31
- Kd [23]: 119 nM
- Kd [24]: 54.1 nM
- Kd [25]: 5.27 nM
- Kd [26]: 3000 nM
- Kd [27]: 300 nM
